Results reported in paper PMC6146835.

Tested on: HBG-4kb ZF (synthetic 6-zinc-finger DNA-binding domain) (synthetic construct)
Assay: EMSA
Details: 10 mM Tris pH 7.5, 50 mM KCl, 5 mM MgCl2, 100 uM ZnCl2, 1 mM DTT, 0.05% Triton X-100, 2.5% glycerol, 100 ng herring sperm DNA per 20 ul, 15 nM Cy5-dsDNA …

Sequence | Kd
GAGAACTTAGTGGGGGAAAGCAAGCAGAGAGTATAT (double strand) [HBG-4kb on-target] | 29.5 nM
GAGAACTTAGTGGGGGAAAAAAAGCAGAGAGTATAT (double strand) [HBG-4kb off-target (2-nt mutant)] | 90 nM
